This passage reports EC50 results from patent US20220177583A1 (University of California, published 2022).

A value given as a limit tells only on which side of the number the result lay.

Test [1] has as its target T1, CLDN9-GFP expressed on engineered HEK293T cells (human, UniProt O95484 1-217).
T1 construct: whole, on cells; also called HEK293T CLDN9-mGFP; Artificial CLDN9+; not shown: GFP tag
T1 sequence (looked up): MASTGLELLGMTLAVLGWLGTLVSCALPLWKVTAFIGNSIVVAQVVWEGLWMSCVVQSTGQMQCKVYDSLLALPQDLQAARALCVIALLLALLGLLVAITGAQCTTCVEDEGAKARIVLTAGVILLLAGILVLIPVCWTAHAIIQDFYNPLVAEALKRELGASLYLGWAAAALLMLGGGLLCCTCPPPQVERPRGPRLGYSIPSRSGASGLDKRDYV
As to the kind of experiment: FACS dose curve, labelled mAb, HEK293T CLDN9-mGFP cells.

Test [2] addresses T2, mouse CLDN6 fused to GFP, expressed on engineered HEK293T cells (mouse, UniProt Q9Z262 1-219).
T2 construct: whole, on cells; also called HEK293T-CLDN6-mGFP Artificial CLDN6+ (mouse); murine CLDN6; not shown: GFP tag
T2 sequence (looked up): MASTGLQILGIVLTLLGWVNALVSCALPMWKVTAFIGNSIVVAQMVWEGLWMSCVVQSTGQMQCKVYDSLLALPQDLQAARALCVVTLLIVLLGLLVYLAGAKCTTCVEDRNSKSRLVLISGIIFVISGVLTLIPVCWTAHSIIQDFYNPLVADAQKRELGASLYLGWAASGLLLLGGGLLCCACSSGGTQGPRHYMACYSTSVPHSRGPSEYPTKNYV
As to the kind of experiment: FACS dose curve, labelled mAb, HEK293T-CLDN6-mGFP (mouse) cells.

In test [3] the target is T3, human CLDN6, endogenously expressed on cancer cell lines (human, UniProt P56747 1-220).
T3 construct: also called Endogenous CLDN6+; CLDN6 on ARK2, OVCA429, UMUC4 cells
T3 sequence: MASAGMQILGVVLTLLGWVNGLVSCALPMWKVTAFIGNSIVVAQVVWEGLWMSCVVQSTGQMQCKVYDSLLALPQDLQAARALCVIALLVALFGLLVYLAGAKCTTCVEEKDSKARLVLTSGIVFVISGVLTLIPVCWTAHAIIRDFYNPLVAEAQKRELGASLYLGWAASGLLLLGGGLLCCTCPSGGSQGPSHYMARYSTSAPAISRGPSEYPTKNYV
As to the kind of experiment: FACS dose curve, labelled mAb, OVCA429 cells.

For test [4], the target named is T3, human CLDN6, endogenously expressed on …. As to the kind of experiment: FACS dose curve, labelled mAb, ARK2 cells.
Test [5] deals with T4, CLDN4-GFP expressed on engineered HEK293T cells (human, UniProt O14493 1-209).
T4 construct: whole, on cells; also called HEK293T CLDN4-mGFP; Artificial CLDN4+; not shown: GFP tag
T4 sequence (looked up): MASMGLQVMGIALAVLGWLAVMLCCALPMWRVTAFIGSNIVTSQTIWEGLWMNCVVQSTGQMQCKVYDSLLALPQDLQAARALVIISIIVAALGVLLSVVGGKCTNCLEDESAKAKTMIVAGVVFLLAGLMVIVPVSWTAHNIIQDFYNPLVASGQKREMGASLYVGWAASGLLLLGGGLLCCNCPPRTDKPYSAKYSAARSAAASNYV
As to the kind of experiment: FACS dose curve, labelled mAb, HEK293T CLDN4-mGFP cells.

B1: AB7 (antibody, V domains shown)
VH: EVQLQQSGPELVKPGASMKISCKASGYSFTGYTMNWVKQSHGKNLEWIGLINPYNGGTNYNQKFKGKATLTVDKSSSTAYMELLSLTSEDSAVYYCARGVYDYDGFTYWGQGTLVTVSA
VL: QIVLTQSPAIMSASLGDRVTMTCTASSSVSSSYLHWYQQKPGSSPKLWIYSTSNLASGVPARFSGSGSGTSYSLTISSMEAEDAATYYCHQYHRSPPTFGSGTKLEIK
notes: Full-length IgG (ExpiCHO)
Consider B1, for which the EC50 turned out to be 1940 nM in test [1]; 1550 nM in test [2]; 531 nM in test [3]; 353 nM in test [4]; 2090 nM in test [5].

B2: AB8 (antibody, V domains shown)
VH: QVQLQQSGAELARPGASVKMSCKASGYTFTTYTMHWLKQRPGQGLEWIGYINPRSGYSNYNQKFKDKATLTADKSSNTAYMQLNTLTSEDSKVYYCSRGELGGFAYWGQGTLVTVSA
VL: DVVMTQTPLSLPVSLGDQASISCRSSQSLVHSDGNTYLYWYLQKPGQSPKLLIYKVSNRFSGVPDRFSGSGSGTDFTLKISRVEAEDLGVYFCSQSTHVPYTFGGGTKLEIK
notes: Full-length IgG (ExpiCHO)
Consider B2, for which the EC50 was 2770 nM in test [1]; at least 5000 nM in test [2]; 1090 nM in test [3]; 1140 nM in test [4]; at least 5000 nM in test [5].

B3: AB6 (antibody, V domains shown)
VH: DVQLQESGPGLVKSSQSLSLTCSVTGYSITSGYYWKWIRQFPGNKLEWMGYISYDGGINYNPSLKNRISITRDTSKNQFFLKLNSVTTEDTAKYYCARFGKGAMDYWGQGTSVTVSS
VL: AIVMFQSPSSLVVSAGEKVTMSCKSSQSLLNSRTRKNYLAWYQQKPGQSPKLLIYWASTRESGVPDRFTGSGSGTDFTLTISSVQAEDLAVYYCKQSYYLYTFGGGTKLEIK
notes: Full-length IgG (ExpiCHO)
Regarding B3, the EC50 in test [1] was 2770 nM; in test [2] it was 2220 nM; in test [3] it was 394 nM; in test [4], 765 nM; in test [5], 26 nM.

B4: AB12 (antibody, V domains shown)
VH: EVKLMESGGDLVKPGGSLKLSCAASGFTFSSYAMSWVRQTPEKRLEWVASIRSGGTTYYPDSVKGRFTISRDNARNILYLRMSSLRSEDTAIYYCAKVGGNPYPMDYWGQGTSVTVSS
VL: DIQMIQSPSSMFASLGDRVSLSCRASQDIGGNLDWYQQKPGGTIKLLIYSTSNLNSGVPSRFSGSGSGSDYSLTITSLESEDFADYYCLQRNAYPLTFGAGTKLELK
notes: Full-length IgG (ExpiCHO)
As to B4, the EC50 in test [1] is 2470 nM; in test [3], 2290 nM; in test [4], 1300 nM; in test [5] it was 2090 nM.
